The source of these data is article PMC7545998, “A snake toxin as a theranostic agent for the type 2 vasopressin receptor” (Theranostics, 2020).

Like-named read-outs stand apart in the source and are kept apart here.

Usually Ki stands for the equilibrium dissociation constant of an inhibitor or competing ligand from its target.

For series [1] the following is noted: in rats; cited from earlier work. From the text:
The intrinsic qualities needed to develop a good in vivo contrast agent are high molecular selectivity so as to label only the selected target, a high affinity, so that a low dose of the tracer can be injected, quick blood elimination to reduce background noise and long-term residence in the targeted organ. […] As a peptide, MQ1 is simple to engineer. […] We exemplified this statement by generating the first PET agent specific to V2R and two highly efficient spe ...

The subject of series [2] is porcine kidney epithelial cells LLC-pk1. Kind of series: Confocal imaging of endogenous V2R in LLC-pk1 cells. Format: cell-based. Particulars: 1 µM, 30-min pre-incubation. Here is the method:
In cells endogenously expressing V2R, such as porcine kidney epithelial cells LLC-pk1, labeling of V2R with AFDye-488-MQ1 and Cy5.5-MQ1 (100 nM) was performed with either fresh or PFA-fixed cells (Figures 7A and B). […] In the pathophysiological context, three renal cancer cell lines (CAKI-2, ACHN and A498 [38]) known to express V2R were tested. […] The presence of V2R, at the cell membrane level, fluctuated as a function of cell density and the number of cell divisions, whatever the cell line used. […] To our knowledge, this is the first specific ligand labeling of V2R in non-permeabilized cancer cells.
Freshly dissociated CHO, LLC-PK1 or renal cancer cell lines expressing vasopressin receptors were seeded on 12-mm glass coverslips pre-coated with poly-ornithine, cultured for 48 h before incubation in DMEM, 0.2 mg/mL BSA, 25 mM HEPES, pH 7.4 for 1 h at 12°C or 30 min at 22 °C with fluorescent analogues in the absence or presence of non-fluorescent ligands (30-min pre-incubation). After 3 washes with cold PBS, the cells were finally fixed in 4% PFA overnight at 4 °C and mounted with Mowiol. The fluorescent cells were imaged using a Zeiss LSM510 Meta confocal microscope equipped with a ×63 (NA 1.4) oil immersion objective. For excitation, available laser rays were 488 and 633 nm and emission signals were collected in multitracking mode with appropriate band pass filters. […]

For series [3] the following is noted: cited from earlier work. Here is the method: Aprotinin and bikunin are two Kunitz peptides. Aprotinin is used clinically in acute pancreatitis, shock syndromes and hyperfibrinolytic hemorrhage. Bikunin is a protease Kunitz inhibitor that inhibits the invasiveness of tumor cells of various histological origins. Aprotinin [54] and bikunin [55] have similar T1/2α of 0.7 and 0.85 h and T1/2β of 7 and 6.4 h, respectively.

Series [4] addresses T1, Type 2 vasopressin receptor (V2R) (Rattus norvegicus, UniProt Q00788).
T1 chain: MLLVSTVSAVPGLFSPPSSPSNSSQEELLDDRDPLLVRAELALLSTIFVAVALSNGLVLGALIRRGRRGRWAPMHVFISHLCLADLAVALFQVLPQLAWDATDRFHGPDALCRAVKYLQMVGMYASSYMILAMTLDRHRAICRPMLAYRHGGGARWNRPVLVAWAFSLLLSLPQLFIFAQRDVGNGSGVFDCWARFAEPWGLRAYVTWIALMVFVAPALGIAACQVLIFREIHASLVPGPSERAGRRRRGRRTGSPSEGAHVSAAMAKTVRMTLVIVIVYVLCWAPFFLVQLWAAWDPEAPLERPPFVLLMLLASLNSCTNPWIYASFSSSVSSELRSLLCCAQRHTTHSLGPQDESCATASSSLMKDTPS
The series is described as follows: [3H]AVP competition radioligand binding.

Turning to `NC(=O)CC[C@@H]1NC(=O)[C@H](Cc2ccccc2)NC(=O)[C@H](Cc2ccc(O)cc2)NC(=O)[C@@H](N)CSSC[C@@H](C(=O)N2CCC[C@H]2C(=O)N[C@@H](CCCN=C(N)N)C(=O)NCC(N)=O)NC(=O)[C@H](CC(N)=O)NC1=O` [AVP, arginine-vasopressin], in series [1], the T1/2α is reported as 0.9 min and the T1/2β is 8 min.
Consider `CCOc1ccc2c(c1)C1(CCC(OCCN3CCOCC3)CC1)C(=O)N2S(=O)(=O)c1ccc(C(=O)NC(C)(C)C)cc1OC` (centres unmarked) [SR121463, reference compound], for which the “effect on labeling by AFDye-488-MQ1 and Cy5.5-MQ1” value in series [2] was “inhibited the labeling”.
For the molecule Aprotinin [reference compound], in series [3], the T1/2α was 42 min and the T1/2β was 420 min.

B1: Mambaquaretin (MQ1) (protein)
chain: RPSFCNLPVKPGPCNGFFSAFYYSQKTNKCHSFTYGGCKGNANRFSTIEKCRRTCVG
B1: affinity in series [4] was put at a Ki of 7.7 nM.

B2: bikunin: protease Kunitz inhibitor that inhibits the invasiveness of tumor cells (protein, UniProt P02760 206-352, looked up)
Inter-alpha-trypsin inhibitor …: AVLPQEEEGSGGGQLVTEVTKKEDSCQLGYSAGPCMGMTSRYFYNGTSMACETFQYGGCMGNGNNFVTEKECLQTCRTVAACNLPIVRGPCRAFIQLWAFDAVKGKCVLFPYGGCQGNGNKFYSEKECREYCGVPGDGDEELLRFSN
modifications: Inter-alpha-trypsin inhibitor light chain
As to B2, in series [3], the T1/2α was 51 min and the T1/2β was 384 min.
